From paper PMC3510490, “Structure of Actin-related protein 8 and its contribution to nucleosome binding” (Nucleic Acids Research, 2012) come the findings set out here.

Data set [1] concerns the target 207-bp nucleosome (Xenopus laevis). In words: other fluorescence titration; Arp constructs or sub-complex titrated (1 to 5000 nM) into fluorescently labelled histone complexes or nucleosomes kept at 0.5-1 nM, 40 µl in microplates; 20 mM Tris pH 7.5, 150 mM KCl, 5% glycerol, 1 mM TCEP, 0.01% CHAPS, 0.01% octylglucoside; room temperature, 20-30 min; apparent Kd and Hill coefficient from non-linear fit; quadruplicates.

Data set [2] deals with H2A–H2B dimer (Xenopus laevis) (UniProt P06897). Described as above.
Data set [3] deals with Yeast Arp4 (Saccharomyces cerevisiae). In words: fluorescence titration. The settings on record: 20 mM Tris pH 7.5, 150 mM KCl, 5% glycerol, 1 mM TCEP, 0.01% CHAPS, 0.01% octylglucoside; room temperature 20-30 min; labelled species 0.5-1 nM, protein ….
For data set [4], the system named is Yeast Arp8 (Saccharomyces cerevisiae). In words: fluorescence titration. The settings on record: 20 mM Tris pH 7.5, 150 mM KCl, 5% glycerol, 1 mM TCEP, 0.01% CHAPS, 0.01% octylglucoside, room temperature 20-30 min, labelled species 0.5-1 nM, protein ….
The subject of data set [5] is Human Arp8 full-length (Homo sapiens). Put plainly: fluorescence titration. The settings on record: 20 mM Tris pH 7.5, 150 mM KCl, 5% glycerol, 1 mM TCEP, 0.01% CHAPS, 0.01% octylglucoside, room temperature 20-30 min, labelled species 0.5-1 nM, protein ….
Data set [6] concerns Yeast Arp8;Yeast Arp4;Actin (INO80 sub-complex I);Ino80 HSA domain (INO80 sub-complex I) (Saccharomyces cerevisiae;Saccharomyces cerevisiae;Saccharomyces cerevisiae;Saccharomyces cerevisiae). Put plainly: fluorescence titration. The settings on record: 20 mM Tris pH 7.5, 150 mM KCl, 5% glycerol, 1 mM TCEP, 0.01% CHAPS, 0.01% octylglucoside, room temperature 20-30 min, labelled species 0.5-1 nM, protein ….

Data set [7] relates to Human Arp8 (Δ1-33) (Homo sapiens). In words: fluorescence titration. The settings on record: 20 mM Tris pH 7.5, 150 mM KCl, 5% glycerol, 1 mM TCEP, 0.01% CHAPS, 0.01% octylglucoside, room temperature 20-30 min, labelled species 0.5-1 nM, protein ….

Homo sapiens Arp8 (Δ1–33), sequence (Q9H981 34-624, stated change not applied): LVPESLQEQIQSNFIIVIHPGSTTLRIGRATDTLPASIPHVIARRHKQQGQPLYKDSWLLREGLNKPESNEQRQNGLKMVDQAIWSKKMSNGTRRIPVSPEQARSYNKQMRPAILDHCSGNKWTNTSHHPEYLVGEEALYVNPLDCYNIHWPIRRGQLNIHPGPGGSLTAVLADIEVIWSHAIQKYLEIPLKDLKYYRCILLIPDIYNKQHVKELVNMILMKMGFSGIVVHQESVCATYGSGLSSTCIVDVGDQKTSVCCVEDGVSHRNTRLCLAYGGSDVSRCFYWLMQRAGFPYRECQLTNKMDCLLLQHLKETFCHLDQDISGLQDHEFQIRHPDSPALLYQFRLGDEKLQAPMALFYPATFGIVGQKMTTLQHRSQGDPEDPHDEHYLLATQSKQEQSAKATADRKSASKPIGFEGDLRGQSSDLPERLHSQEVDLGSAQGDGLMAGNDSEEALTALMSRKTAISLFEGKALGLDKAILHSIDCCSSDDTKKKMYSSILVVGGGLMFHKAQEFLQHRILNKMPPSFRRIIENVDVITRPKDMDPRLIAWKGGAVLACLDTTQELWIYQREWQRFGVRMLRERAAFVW
Full-length Homo sapiens Arp8, sequence (Q9H981 whole entry): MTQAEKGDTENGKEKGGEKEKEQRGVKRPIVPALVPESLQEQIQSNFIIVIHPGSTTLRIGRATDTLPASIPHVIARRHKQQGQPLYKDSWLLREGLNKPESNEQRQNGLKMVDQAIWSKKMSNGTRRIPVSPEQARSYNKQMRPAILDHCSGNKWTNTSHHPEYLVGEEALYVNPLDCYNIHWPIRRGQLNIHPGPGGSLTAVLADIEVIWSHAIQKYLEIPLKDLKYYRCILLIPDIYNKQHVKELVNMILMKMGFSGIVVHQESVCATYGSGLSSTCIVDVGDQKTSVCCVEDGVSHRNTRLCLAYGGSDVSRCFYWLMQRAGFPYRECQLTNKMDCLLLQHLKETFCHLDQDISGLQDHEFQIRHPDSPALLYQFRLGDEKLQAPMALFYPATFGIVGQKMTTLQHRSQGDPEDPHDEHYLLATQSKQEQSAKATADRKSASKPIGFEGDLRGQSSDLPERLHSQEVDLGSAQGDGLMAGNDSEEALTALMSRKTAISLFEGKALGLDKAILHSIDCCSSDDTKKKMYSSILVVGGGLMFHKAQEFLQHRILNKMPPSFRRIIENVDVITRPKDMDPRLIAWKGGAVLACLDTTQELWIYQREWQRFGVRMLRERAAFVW

In the case of “Saccharomyces cerevisiae Arp4 (from UniProt P80428 1-489) (natural protein)”, in data set [1], the Kd is 204 nM.

Take “Homo sapiens Arp8 (Δ1–33) (from UniProt Q9H981 34-624) (domain or fragment)”: the values for the Kd in data set [2] and in data set [1] were 367 nM and 62.6 nM, respectively.

207-bp nucleosome: the Kd was determined as 204 nM in data set [3]; 314 nM in data set [4]; 0.051 µM in data set [5]; 63.6 nM in data set [6]; 0.0626 µM in data set [7].

With “Full-length Homo sapiens Arp8 (from UniProt Q9H981 1-624) (natural protein)”, the Kd was 555 nM in data set [2] and 51 nM in data set [1].

For the substance “Saccharomyces cerevisiae Arp8 (from UniProt Q12386 1-881) (natural protein)”, the Kd in data set [2] was 1950 nM; in data set [1], 314 nM.

Consider “Saccharomyces cerevisiae INO80 sub-complex I (Arp8–Arp4–actin-HSA) (from UniProt Q12386 1-881; P80428 1-489; P60010 1-375; P53115 462-685)”, for which the Kd in data set [2] was determined as 853 nM; in data set [1] it was 63.6 nM.

In the case of 30-bp DNA ('601' sequence linker DNA), the Kd in data set [4] (5' C6 amine) came out at 1920 nM; in data set [5] (5' C6 amine), 6.94 µM; in data set [6] (5' C6 amine) it was 366 nM; in data set [7] (5' C6 amine), 6.33 µM.
